In the supplement of paper PMC7125110:
± gives the standard error. For some assays here: This sample holds only a part of the variants without activity.

B1: glmS ribozyme (parent)
chain: AUAAAAGCGCCAGAACUACAGAAAUGUAGUUGACGAGGAGGAGGUUUAUCGAAUUUUCGGCGGAUGCCUCCAAA

Legend:
Settings in all cases: with glucosamine-6-phosphate
glucosamine-6-phosphate [1] = variants of: B1; test: kcat; higher = faster cleavage; RNA array
In short: (§1)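 Glucosamine-6-phosphate in HEPES/KCl/Mg(OAc)2 buffer, at 40 μM to 10 mM, was flowed over barcoded ribozyme variants transcribed in situ by E. coli RNA polymerase on sequenced MiSeq chips. Tracking was through a hybridised Cy3 probe at 37 °C. kobs, kcat and KM came from exponential decay fits and weighted Michaelis–Menten fits of normalised per-tile medians.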

glucosamine-6-phosphate [2] = variants of: B1; test: KM; higher = weaker cofactor use; RNA array
In short: as §1

glucosamine-6-phosphate [3] = variants of: B1; test: self-cleavage kobs at 2500 uM GlcN6P; higher = faster cleavage; RNA array
In short: as §1

glucosamine-6-phosphate [4] = variants of: B1; test: self-cleavage kobs at 10000 uM GlcN6P; higher = faster cleavage; RNA array
In short: as §1

glucosamine-6-phosphate [5] = variants of: B1; test: self-cleavage kobs at 40 uM GlcN6P; higher = faster cleavage; RNA array
In short: as §1

glucosamine-6-phosphate [6] = variants of: B1; test: self-cleavage kobs at 160 uM GlcN6P; higher = faster cleavage; RNA array
In short: as §1

glucosamine-6-phosphate [7] = variants of: B1; test: self-cleavage kobs at 640 uM GlcN6P; higher = faster cleavage; RNA array
In short: as §1

Variant	kcat (glucosamine-6-phosphate [1]) [s⁻¹]	KM (glucosamine-6-phosphate [2]) [µM]	self-cleavage kobs at 2500 uM GlcN6P (glucosamine-6-phosphate [3]) [s⁻¹]	self-cleavage kobs at 10000 uM GlcN6P (glucosamine-6-phosphate [4]) [s⁻¹]	self-cleavage kobs at 40 uM GlcN6P (glucosamine-6-phosphate [5]) [s⁻¹]	self-cleavage kobs at 160 uM GlcN6P (glucosamine-6-phosphate [6]) [s⁻¹]	self-cleavage kobs at 640 uM GlcN6P (glucosamine-6-phosphate [7]) [s⁻¹]
AUAAAAGCGCCAGAAGUACAGAAAUGUAGUUGACGAGGAGGAGGUUUAUCGAAUUUACGGCGGAUGCCUCCAAA [C16G U57A]	5.68e-05 ± 5.7e-06	1570 ± 780	3.99e-05 ± 1.7e-05	4.85e-05 ± 8.9e-06	–	–	–
AUAAAAGCGCCAGAACUACAGAAAUGUAGUUGACGAGGAGGAGGUUUAUUGAAUUUUCGGCGGAUGCCUCUAAA [C50U C71U]	5.37e-05 ± 8.4e-06	–	4.54e-05 ± 9.2e-06	4.57e-05 ± 1e-05	–	–	–
AUAAAAGCGCCAGAACUACAGAAAUGUAGUUGACGAGGAGGAGGUUUAUCGAAUUCUCGGCGGAUGCCUCAAAA [U56C C71A]	4.36e-05 ± 8.2e-06	–	5.14e-05 ± 1.2e-05	3.76e-05 ± 9e-06	–	–	–
AUAAAAGCGCCAUAACUACAGAAAUGUAGUUGACGAGGAGGAGGUUUAUCGAAUUUUCUGCGGAUGUCUCCAAA [G13U G59U C67U]	1.71e-05 ± 6.1e-06	–	–	–	–	–	–
AUAAAAGCGCCAUAACUACAGAAAUGUAGUUGACGAGGAGGAGGUUUAUCGAAUUUUCGGAGGAUGCCUCCAAA [G13U C61A]	1.33e-05 ± 2.2e-06	–	–	–	–	–	–
AUAAAAGCGCCAGCACUACAGAAAUGUAGUUGACGAGGAGGAGGUUUAUCGAAUCUUCGGCGGAUGCCUCCAAA [A14C U55C]	0.00399 ± 0.0011	1800 ± 660	0.00171 ± 0.00035	0.00439 ± 0.00076	8.57e-05 ± 1.1e-05	0.000312 ± 7.6e-05	0.00122 ± 0.00015
AUAAAAGCGCCAGAACUACAGAAAUGUAGUUGACGAGGAGGAGGUUUAUCGAAUUGUCGGCGGAGGCCUCCAAA [U56G U65G]	0.00371 ± 0.00083	7360 ± 2500	0.000811 ± 0.00023	0.00218 ± 0.00031	3.29e-05 ± 1.6e-05	–	0.000301 ± 6e-05
AUAAAAGCGCCAGAACUACAGAAAUGUAGUUGACGAGGAGGAGGUUUAUCGAAUGUCCGGCGGAUGCCUCCAAA [U55G U57C]	0.000252 ± 3.3e-05	4830 ± 1100	7.83e-05 ± 1.6e-05	0.000174 ± 2.6e-05	< 1e-05	–	3.51e-05 ± 1e-05
AUAAAAGCGCCAGAACUACAGAAAUGUAGUUGACGAGGAGGAGGUUUAUCGAAUUUUCGGCGGGUGUCUCCAAA [A64G C67U]	0.00193 ± 0.0003	1860 ± 470	0.00125 ± 0.00017	0.00154 ± 0.00015	2.93e-05 ± 7.3e-06	0.000155 ± 2.3e-05	0.000628 ± 8.6e-05
AUAAAAGCGCCAGAACUACAGAAAUGUAGUUGACGAGGAGGAGGUCUAUCGAAUUUUCGGCGGAUACCUCCAAA [U46C G66A]	0.000975 ± 0.00019	799 ± 250	0.000662 ± 0.00023	0.00107 ± 0.00025	5.14e-05 ± 1e-05	–	0.000364 ± 9.2e-05
AUAAAAGCGCCAGAACUACAGAAAUGUAGUUGACGAGGAGGAGGUUUAGCGAAUAUUCGGCGGAUGCCUCCAAA [U49G U55A]	0.00113 ± 0.0001	2740 ± 370	0.000539 ± 5.5e-05	0.000891 ± 0.00013	–	6.19e-05 ± 9.7e-06	0.000213 ± 2.8e-05
AUAAAAACGCCAGAACUACAGAAAUGUAGUUGACGAGGAGGAGGUUUAUCGAAUUUUCGGCGGAUGCCUCCAAA [G7A]	4.39e-05 ± 1.2e-06	4040 ± 350	1.71e-05 ± 2.6e-06	3.13e-05 ± 1.1e-06	–	–	–
AUAAAAGCGCCAGAACUACAGAAAUGUAGUUGACGAGGAGGAGCUUAAUCGAAUUUUCGGCGGAUGCCUCCAAA [G44C U47A]	8.35e-05 ± 6.6e-06	1270 ± 350	5.07e-05 ± 1.6e-05	7.67e-05 ± 1.8e-05	–	–	–
AUAAAAGCGCCAGAACUACAGAAAUGUAGUUGACGACGAGGAGGUUUAUCGAAUUUUCGGCGGAUGCCUCAAAA [G37C C71A]	1.96e-05 ± 6.3e-06	–	–	–	–	–	–
AUAAAAGCGCCUGAACUACAGAAAUGUAGUUGACGAGGAGGACGUUUAUCGAAUUUUCGGCGGAUGCCUCCAAA [A12U G43C]	1.4e-05 ± 1.4e-06	6950 ± 1500	–	–	–	< 1e-05	< 1e-05
AUAAAAGCGCCUGAACUACAGAAAUGUAGUUGACGAGGAGGAGGUUCAUCGAAUUUUCGGCGGAUGCCUCCAAA [A12U U47C]	0.0109 ± 0.0038	1790 ± 840	0.0111 ± 0.0021	0.00873 ± 0.0011	0.00032 ± 3.3e-05	0.000599 ± 0.0001	0.00299 ± 0.00033
AUAAAAGCGCCAGAACUACAGAAAUGUAGUUGACGAGGAAGAGGUUUAUCGAAUUUUCGGCGGAUCCCUCCAAA [G40A G66C]	0.000903 ± 0.00019	2220 ± 740	0.00045 ± 8.6e-05	0.000774 ± 9.9e-05	3.77e-05 ± 1.3e-05	6.89e-05 ± 1.1e-05	0.000166 ± 3.2e-05
